Experimental data as given in patent WO1992011383A1.

Biological target: recombinant human TNF-alpha (human) (UniProt P01375)
Assay: Scatchard analysis in solution: 125I-TNF and unlabelled TNF, antibody captured on anti-IgG agarose beads

Chain of UniProt P01375 (P01375 77-233 limits assumed): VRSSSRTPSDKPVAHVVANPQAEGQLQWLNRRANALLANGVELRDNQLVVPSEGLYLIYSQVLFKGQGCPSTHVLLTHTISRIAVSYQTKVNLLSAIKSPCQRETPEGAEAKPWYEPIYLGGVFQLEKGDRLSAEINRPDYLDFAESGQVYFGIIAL

A Kd of 0.14 nM was found for “CDP571 (CDR-grafted CB0010, gEU light chain / 2hEUg heavy chain) (antibody)” in this work.
